Results published in patent US20180355061A1 (Janssen / Centocor, published 2018).
Changes are numbered by the printed parent chain.

B1: PD1B756 (antibody, human IgG1, kappa, V domains shown)
VH: QITLKESGPTLVKPTQTLTLTCTFSGFSLSTSGMGVSWIRQPPGKALEWLAHIYWDDDKRYSPSLKSRLTITKDTSKNQVVLTMTNMDPVDTGTYYCVRKGYYDYGYVMDYWGQGTLVTVSS
VL: DIVMTQSPLSLPVTPGEPASISCRSSKSLLHSNGITYLNWYLQKPGQSPQLLIYQMSNLASGVPDRFSGSGSGTDFTLKISRVEAEDVGVYYCAQNLELPLTFGGGTKVEIKR
notes: Humanized PD1B512, IgG1; also called VH PD1H389; VL PD1L472
B2: PD1B878 (antibody, human IgG1, kappa, V domains shown)
VH: QVQLVQSGSELKKPGASVKVSCKASGYTFTDYSMHWVRQAPGQGLEWMGWINIETGEPTYAQGFTGRFVFSLDTSVSTAYLQISSLKAEDTAVYFCARDYYGTYFYAMDYWGQGTLVTVSS
VL: EIVLTQSPATLSLSPGERATLSCTASSSVSSSYLHWYQQKPGLAPRLLIYSTSNLASGIPDRFSGSGSGTDYTLTISRLEPEDFAVYYCHQYHRSPLTFGQGTKLEIKR
notes: C84S variant of PD1B743, IgG1; also called VH PD1H405; VL PD1L469
B3: PD1B743 (antibody, human IgG1, kappa, V domains shown)
VH: B2 VH with S84C
VL: B2 VL
notes: Humanized PD1B505, IgG1; also called VH PD1H384; VL PD1L469
B4: PD1B1086 (antibody, human IgG1, kappa, V domains shown)
VH: B2 VH with E57H
VL: B2 VL
notes: also called VH PD1H586; VL PD1L469
B5: PD1B1090 (antibody, human IgG1, kappa, V domains shown)
VH: B2 VH with E57Y
VL: B2 VL with V29F
notes: also called VH PD1H585; VL PD1L651
B6: PD1B1094 (antibody, human IgG1, kappa, V domains shown)
VH: B2 VH with E57H
VL: B2 VL with S30P
notes: also called VH PD1H586; VL PD1L652
B7: PD1B750 (antibody, human IgG1, kappa, V domains shown)
VH: QVQLVQSGAEVKKPGASVKVSCKASGYTFTTYWMHWVRQAPGQGLEWMGEINPNNGGINYAQKFQGRVTLTVDKSISTAYMELSRLRSDDTAVYYCTIDYYDYGGYWGQGTLVTVSS
VL: DIQMTQSPSSLSASVGDRVTITCKASQNVGTNVAWYQQKPEKAPKSLIYSASYRYSGVPSRFSGSGSGTDFTLTISSLQPEDFATYYCQQYNIYPYTFGQGTKLEIKR
notes: Humanized PD1B506, IgG1; also called VH PD1H388; VL PD1L470

Legend:
[1] = biological target: T1, human PD-1 (soluble analyte in SPR) (human, UniProt Q15116 25-170, limits assumed); test: SPR (ProteOn XPR36), mAb captured on anti-human IgG Fc, PD-1 as analyte, 25 C
T1 construct: also called CD279; PDCD1
T1 sequence (Q15116 25-170 limits assumed): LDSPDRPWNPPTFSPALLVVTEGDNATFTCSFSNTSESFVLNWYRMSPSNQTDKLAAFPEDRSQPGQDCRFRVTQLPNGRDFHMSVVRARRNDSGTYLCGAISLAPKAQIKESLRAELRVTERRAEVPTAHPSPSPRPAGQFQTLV
Protocol: (§1) Affinity measurements were performed using a ProteOn XPR36 system (BioRad). […] Approximately 5000 RU (response units) of mAbs were immobilized. The kinetic experiments were performed at 25° C. in running buffer (DPBS+0.01% P20+100 μg/mL BSA). To perform kinetic experiments, 200 RU of mAbs were captured followed by injections of analytes (human and cyno PD-1) at concentrations ranging from 1.563 nM to 400 nM (in a […] serial dilution). The association phase was monitored for 3 minutes at 50 μL/min, then followed by 10 or 15 minutes of buffer flow (dissociation phase). The chip surface was regenerated with two 18 second pulses of 100 mM H₃PO₄ (Sigma, Cat #7961) at 100 μL/min.
(§2) The collected data were processed using ProteOn Manager software. First, the data was corrected for background using inter-spots. Then, double reference subtraction of the data was performed by using the buffer injection for analyte injections. The kinetic analysis of the data was performed using a Langmuir 1:1 binding model. The result for each mAb was reported in the format of ka (On-rate), kd (Off-rate) and KD (equilibrium dissociation constant).
Affinity of the parental and humanized antibodies to PD-1 was measured using SPR as described in Example 1.

[2] = biological target: T2, human PD-1 expressed on cells (human, UniProt Q15116 25-288); test: cell-based or functional assay
T2 sequence (Q15116 25-288 limits assumed): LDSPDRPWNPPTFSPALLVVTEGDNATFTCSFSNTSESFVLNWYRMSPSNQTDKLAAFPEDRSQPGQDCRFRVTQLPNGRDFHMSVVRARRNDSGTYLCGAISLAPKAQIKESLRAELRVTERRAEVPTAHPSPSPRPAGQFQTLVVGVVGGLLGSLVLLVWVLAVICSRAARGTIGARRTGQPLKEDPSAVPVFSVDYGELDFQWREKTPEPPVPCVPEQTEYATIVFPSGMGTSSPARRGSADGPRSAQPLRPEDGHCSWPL

[3] = biological target: T2, human PD-1 expressed on cells; test: cell-based or functional assay; remark: listed apart in the source
[4] = biological target: T2, human PD-1 expressed on cells; test: cell-based or functional assay; remark: listed apart in the source
[5] = biological target: T3, cyno PD-1 (soluble analyte in SPR) (cyno); test: SPR (ProteOn XPR36), mAb captured on anti-human IgG Fc, cyno PD-1 as analyte, 25 C
T3 construct: also called cynomolgus PD-1
Protocol: as §1, §2
(§3) Affinity of the antibodies to human and cyno PD-1 was measured using SPR as described in Example 1.

[6] = biological target: T1, human PD-1 (soluble analyte in SPR); test: SPR (ProteOn XPR36), mAb captured on anti-human IgG Fc, human PD-1 as analyte, 25 C
Protocol: as §1, §2, §3

[7] = biological target: T2, human PD-1 expressed on cells; test: cell-based or functional assay; remark: listed apart in the source

Row | Binder | Kd [1] [nM] | koff [1] [s⁻¹] | kon [1] [M⁻¹ s⁻¹] | mean % inhibition of T cell proliferation, CMV-PBMC assay (FIG. 5B) [2] [%] | % inhibition at 10 ug/ml mAb, CMV-PBMC assay, donor D3 [3] [%] | % inhibition at 10 ug/ml mAb, CMV-PBMC assay, donor D4 [3] [%] | % inhibition at 10 ug/ml mAb, CMV-PBMC assay, donor D5 [3] [%] | % inhibition of activated T cells, CMV-PBMC assay, donor D1 [4] [%] | Kd [5] [nM] | koff [5] [s⁻¹] | kon [5] [M⁻¹ s⁻¹] | Kd [6] [nM] | koff [6] [s⁻¹] | kon [6] [M⁻¹ s⁻¹] | Mean % inhibition across two donors, CMV-PBMC assay [7] [%]
1 | B1 | 18.1 | 0.00214 | 118000 | 36.7 | 27.4 | 0.3 | 69.3 | – | – | – | – | – | – | – | –
2 | B2 | 58.9 | 0.00351 | 59800 | – | – | – | – | 78.3 | – | – | – | – | – | – | –
3 | B3 | 32.8 | 0.003 | 91500 | 58 | – | 30.5 | 64 | – | – | – | – | – | – | – | –
4 | B4 | – | – | – | – | – | – | – | – | 31.8 | 0.00544 | 171000 | 3.19 | 0.000394 | 124000 | 72.7
5 | B5 | – | – | – | – | – | – | – | – | 1.43 | 0.000185 | 130000 | 0.223 | 2.37e-05 | 106000 | 74.8
6 | B6 | – | – | – | – | – | – | – | – | 12 | 0.00162 | 135000 | 0.871 | 9.16e-05 | 105000 | 77.9
7 | B7 | 23.2 | 0.00832 | 359000 | 65.9 | – | 24.2 | 75 | – | – | – | – | – | – | – | –
